Laboratory results taken from IntAct's records for PubMed 35512704.

B1: Speckle-type POZ protein (Homo sapiens), O43791 (parent)
chain: MSRVPSPPPPAEMSSGPVAESWCYTQIKVVKFSYMWTINNFSFCREEMGEVIKSSTFSSGANDKLKWCLRVNPKGLDEESKDYLSLYLLLVSCPKSEVRAKFKFSILNAKGEETKAMESQRAYRFVQGKDWGFKKFIRRDFLLDEANGLLPDDKLTLFCEVSVVQDSVNISGQNTMNMVKVPECRLADELGGLWENSRFTDCCLCVAGQEFQAHKAILAARSPVFSAMFEHEMEESKKNRVEINDVEPEVFKEMMCFIYTGKAPNLDKMADDLLAAADKYALERLKVMCEDALCSNLSVENAAEILILADLHSADQLKTQAVDFINYHASDVLETSGWKSMVVSHPHLVAEAYRSLASAQCPFLGPPRKRLKQS

Variants of: B1
Conditions: with prdm1_human PRDM1, O75626

Row | Variant | effect of a mutation on the interaction
1 | Y87C | with no effect

Variants of: B1
Conditions: with prex2_human PREX2, Q70Z35
prex2_human PREX2, Q70Z35, sequence (Q70Z35 whole entry): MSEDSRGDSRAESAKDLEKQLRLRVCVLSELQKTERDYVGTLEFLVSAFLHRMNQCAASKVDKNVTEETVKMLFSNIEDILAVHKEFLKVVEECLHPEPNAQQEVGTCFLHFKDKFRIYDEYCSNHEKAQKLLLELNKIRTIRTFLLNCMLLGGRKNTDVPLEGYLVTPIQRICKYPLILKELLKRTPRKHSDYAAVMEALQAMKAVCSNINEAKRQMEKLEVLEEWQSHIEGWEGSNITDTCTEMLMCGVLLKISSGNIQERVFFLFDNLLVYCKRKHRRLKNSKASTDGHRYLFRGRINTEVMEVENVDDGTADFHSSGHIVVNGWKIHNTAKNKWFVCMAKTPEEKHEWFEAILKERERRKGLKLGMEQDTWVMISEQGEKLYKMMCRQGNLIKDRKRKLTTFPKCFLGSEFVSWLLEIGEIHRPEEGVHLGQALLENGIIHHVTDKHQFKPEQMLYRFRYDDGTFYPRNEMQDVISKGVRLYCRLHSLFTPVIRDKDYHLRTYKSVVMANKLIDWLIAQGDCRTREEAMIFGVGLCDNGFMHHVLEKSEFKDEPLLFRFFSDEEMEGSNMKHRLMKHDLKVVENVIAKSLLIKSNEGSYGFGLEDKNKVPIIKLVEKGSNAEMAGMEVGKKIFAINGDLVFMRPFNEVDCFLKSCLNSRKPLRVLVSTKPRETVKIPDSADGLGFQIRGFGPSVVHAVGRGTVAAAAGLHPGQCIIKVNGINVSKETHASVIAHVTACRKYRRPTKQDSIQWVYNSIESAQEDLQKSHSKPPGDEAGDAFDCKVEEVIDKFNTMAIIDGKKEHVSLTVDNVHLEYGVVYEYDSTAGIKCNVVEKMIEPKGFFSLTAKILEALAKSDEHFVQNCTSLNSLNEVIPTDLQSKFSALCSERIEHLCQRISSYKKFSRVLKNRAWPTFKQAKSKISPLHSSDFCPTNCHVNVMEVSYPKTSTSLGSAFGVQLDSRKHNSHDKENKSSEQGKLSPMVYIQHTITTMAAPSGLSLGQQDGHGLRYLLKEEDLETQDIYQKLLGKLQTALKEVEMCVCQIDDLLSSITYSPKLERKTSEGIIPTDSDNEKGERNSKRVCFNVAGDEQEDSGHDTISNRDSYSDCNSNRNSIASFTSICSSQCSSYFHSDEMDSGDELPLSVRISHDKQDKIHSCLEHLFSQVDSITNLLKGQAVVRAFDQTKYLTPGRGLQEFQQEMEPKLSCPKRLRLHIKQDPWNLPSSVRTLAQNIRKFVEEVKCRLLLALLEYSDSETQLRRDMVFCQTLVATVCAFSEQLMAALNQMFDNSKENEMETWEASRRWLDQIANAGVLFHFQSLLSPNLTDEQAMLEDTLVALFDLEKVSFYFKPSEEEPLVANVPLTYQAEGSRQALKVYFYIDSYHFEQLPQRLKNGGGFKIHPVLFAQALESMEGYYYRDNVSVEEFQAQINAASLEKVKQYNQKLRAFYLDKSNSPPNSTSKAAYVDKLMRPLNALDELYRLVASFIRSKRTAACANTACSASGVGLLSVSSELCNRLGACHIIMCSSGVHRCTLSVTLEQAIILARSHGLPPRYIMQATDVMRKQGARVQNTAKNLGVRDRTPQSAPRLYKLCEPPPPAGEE

Row | Variant | effect of a mutation on the interaction
2 | Y87C | with no effect

Variants of: B1
Conditions: with aapk2_human PRKAA2, P54646

Row | Variant | effect of a mutation on the interaction
3 | Y87C | with no effect

Variants of: B1
Conditions: with prss8_human PRSS8, Q16651
prss8_human PRSS8, Q16651, sequence (Q16651 whole entry, looked up): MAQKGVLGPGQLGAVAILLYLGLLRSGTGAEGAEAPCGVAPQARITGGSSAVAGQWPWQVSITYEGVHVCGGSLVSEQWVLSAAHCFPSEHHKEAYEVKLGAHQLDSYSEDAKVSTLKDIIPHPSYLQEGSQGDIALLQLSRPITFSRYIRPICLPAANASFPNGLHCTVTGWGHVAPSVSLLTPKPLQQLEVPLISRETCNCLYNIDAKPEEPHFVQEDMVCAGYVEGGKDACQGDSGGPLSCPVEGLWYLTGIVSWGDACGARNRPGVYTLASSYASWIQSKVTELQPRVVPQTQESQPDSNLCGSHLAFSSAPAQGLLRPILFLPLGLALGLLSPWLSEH

Row | Variant | effect of a mutation on the interaction
4 | Y87C | with no effect

Variants of: B1
Conditions: with ptk6_human PTK6, Q13882

Row | Variant | effect of a mutation on the interaction
5 | Y87C | with no effect

Variants of: B1
Conditions: with tf65_human RELA

Row | Variant | effect of a mutation on the interaction
6 | Y87C | with no effect

Variants of: B1
Conditions: with rictr_human RICTOR

Row | Variant | effect of a mutation on the interaction
7 | Y87C | with no effect

Variants of: B1
Conditions: with rnf43_human RNF43, Q68DV7

Row | Variant | effect of a mutation on the interaction
8 | Y87C | with no effect

Variants of: B1
Conditions: with ros1_human ROS1, P08922

Row | Variant | effect of a mutation on the interaction
9 | Y87C | with no effect

Variants of: B1
Conditions: with rl11_human RPL11, P62913

Row | Variant | effect of a mutation on the interaction
10 | Y87C | with no effect

Variants of: B1
Conditions: with rl5_human RPL5, P46777

Row | Variant | effect of a mutation on the interaction
11 | Y87C | with no effect

Variants of: B1
Conditions: with rs15_human RPS15, P62841

Row | Variant | effect of a mutation on the interaction
12 | Y87C | with no effect

Variants of: B1
Conditions: with rs2_human RPS2, P15880

Row | Variant | effect of a mutation on the interaction
13 | Y87C | with no effect

Variants of: B1
Conditions: with rptor_human RPTOR

Row | Variant | effect of a mutation on the interaction
14 | Y87C | with no effect

Variants of: B1
Conditions: with rxra_human RXRA

Row | Variant | effect of a mutation on the interaction
15 | Y87C | with no effect

Variants of: B1
Conditions: with sdha_human SDHA

Row | Variant | effect of a mutation on the interaction
16 | Y87C | with no effect

Variants of: B1
Conditions: with setbp_human SETBP1, Q9Y6X0

Row | Variant | effect of a mutation on the interaction
17 | Y87C | with no effect

Variants of: B1
Conditions: with setb1_human SETDB1, Q15047

Row | Variant | effect of a mutation on the interaction
18 | Y87C | with no effect

Variants of: B1
Conditions: with skp2_human SKP2, Q13309
skp2_human SKP2, Q13309, sequence (Q13309 whole entry): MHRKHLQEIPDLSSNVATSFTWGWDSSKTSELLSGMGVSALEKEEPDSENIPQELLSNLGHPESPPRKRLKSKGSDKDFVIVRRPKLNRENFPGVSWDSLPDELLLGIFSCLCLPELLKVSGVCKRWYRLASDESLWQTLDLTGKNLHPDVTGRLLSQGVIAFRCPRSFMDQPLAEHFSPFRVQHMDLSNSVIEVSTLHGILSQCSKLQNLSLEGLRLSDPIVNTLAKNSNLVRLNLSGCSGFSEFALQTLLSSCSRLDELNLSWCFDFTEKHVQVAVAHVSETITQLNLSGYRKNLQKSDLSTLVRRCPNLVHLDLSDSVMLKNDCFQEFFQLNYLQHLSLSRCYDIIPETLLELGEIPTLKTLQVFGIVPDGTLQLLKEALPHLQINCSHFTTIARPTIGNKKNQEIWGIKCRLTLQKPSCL

Row | Variant | effect of a mutation on the interaction
19 | Y87C | with no effect

Variants of: B1
Conditions: with smad1_human SMAD1, Q15797

Row | Variant | effect of a mutation on the interaction
20 | Y87C | with no effect

Variants of: B1
Conditions: with smca4_human SMARCA4, P51532

Row | Variant | effect of a mutation on the interaction
21 | Y87C | with no effect

Variants of: B1
Conditions: with snf5_human SMARCB1, Q12824
snf5_human SMARCB1, Q12824, sequence (Q12824 whole entry): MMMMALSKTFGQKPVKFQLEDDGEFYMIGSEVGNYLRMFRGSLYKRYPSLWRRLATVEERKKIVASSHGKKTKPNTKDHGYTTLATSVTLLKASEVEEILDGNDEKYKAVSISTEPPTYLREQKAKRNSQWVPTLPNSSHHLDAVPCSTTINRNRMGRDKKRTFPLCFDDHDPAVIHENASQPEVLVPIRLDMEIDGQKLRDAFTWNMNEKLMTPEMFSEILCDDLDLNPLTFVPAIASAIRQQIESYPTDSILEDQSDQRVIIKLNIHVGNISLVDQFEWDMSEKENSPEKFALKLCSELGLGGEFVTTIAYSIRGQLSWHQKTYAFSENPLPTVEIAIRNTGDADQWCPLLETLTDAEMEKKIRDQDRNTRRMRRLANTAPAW

Row | Variant | effect of a mutation on the interaction
22 | Y87C | with no effect

Variants of: B1
Conditions: with smo_human SMO

Row | Variant | effect of a mutation on the interaction
23 | Y87C | with no effect

Variants of: B1
Conditions: with smuf1_human SMURF1, Q9HCE7

Row | Variant | effect of a mutation on the interaction
24 | Y87C | with no effect

Variants of: B1
Conditions: with socs1_human SOCS1, O15524

Row | Variant | effect of a mutation on the interaction
25 | Y87C | with no effect

Variants of: B1
Conditions: with sox10_human SOX10, P56693

Row | Variant | effect of a mutation on the interaction
26 | Y87C | with no effect

Variants of: B1
Conditions: with sox2_human SOX2, P48431

Row | Variant | effect of a mutation on the interaction
27 | Y87C | with no effect

Variants of: B1
Conditions: with src_human SRC

Row | Variant | effect of a mutation on the interaction
28 | Y87C | with no effect

Variants of: B1
Conditions: with whr1_human WHR1, P49842

Row | Variant | effect of a mutation on the interaction
29 | Y87C | with no effect

Variants of: B1
Conditions: with stk38_human STK38, Q15208

Row | Variant | effect of a mutation on the interaction
30 | Y87C | with no effect

Variants of: B1
Conditions: with eloc_human ELOC

Row | Variant | effect of a mutation on the interaction
31 | Y87C | with no effect

Variants of: B1
Conditions: with tfe2_human TCF3, P15923

Row | Variant | effect of a mutation on the interaction
32 | Y87C | with no effect

Variants of: B1
Conditions: with tead1_human TEAD1, P28347

Row | Variant | effect of a mutation on the interaction
33 | Y87C | with no effect

Variants of: B1
Conditions: with tead3_human TEAD3, Q99594

Row | Variant | effect of a mutation on the interaction
34 | Y87C | with no effect

Variants of: B1
Conditions: with tead4_human TEAD4, Q15561

Row | Variant | effect of a mutation on the interaction
35 | Y87C | with no effect

Variants of: B1
Conditions: with tet2_human TET2, Q6N021

Row | Variant | effect of a mutation on the interaction
36 | Y87C | with no effect

Variants of: B1
Conditions: with tgfr2_human TGFBR2, P37173

Row | Variant | effect of a mutation on the interaction
37 | Y87C | with no effect

Variants of: B1
Conditions: with tnr14_human TNFRSF14, Q92956
tnr14_human TNFRSF14, Q92956, sequence (Q92956 whole entry): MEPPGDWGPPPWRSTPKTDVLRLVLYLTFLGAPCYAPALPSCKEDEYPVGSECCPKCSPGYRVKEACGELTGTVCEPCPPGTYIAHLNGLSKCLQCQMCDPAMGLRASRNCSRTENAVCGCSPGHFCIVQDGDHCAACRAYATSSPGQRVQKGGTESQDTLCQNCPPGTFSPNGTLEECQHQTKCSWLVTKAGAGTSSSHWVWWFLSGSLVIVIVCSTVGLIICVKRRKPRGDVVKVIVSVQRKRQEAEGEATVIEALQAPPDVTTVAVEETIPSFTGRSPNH

Row | Variant | effect of a mutation on the interaction
38 | Y87C | with no effect

Variants of: B1
Conditions: with tsc2_human TSC2, P49815

Row | Variant | effect of a mutation on the interaction
39 | Y87C | with no effect

Variants of: B1
Conditions: with tshr_human TSHR

Row | Variant | effect of a mutation on the interaction
40 | Y87C | with no effect

Variants of: B1
Conditions: with vegfa_human VEGFA

Row | Variant | effect of a mutation on the interaction
41 | Y87C | with no effect

Variants of: B1
Conditions: with vhl_human VHL

Row | Variant | effect of a mutation on the interaction
42 | Y87C | with no effect

Variants of: B1
Conditions: with wee1_human WEE1, P30291

Row | Variant | effect of a mutation on the interaction
43 | Y87C | with no effect

Variants of: B1
Conditions: with wwtr1_human WWTR1, Q9GZV5

Row | Variant | effect of a mutation on the interaction
44 | Y87C | with no effect

Variants of: B1
Conditions: with xpo1_human XPO1, O14980

Row | Variant | effect of a mutation on the interaction
45 | Y87C | with no effect

Variants of: B1
Conditions: with il7ra_human IL7R

Row | Variant | effect of a mutation on the interaction
46 | Y87C | increasing interaction strength
